Experimental data published in US20210261650A1 (published 2021).

B1: SARS-CoV-2 S315 mAb (antibody, V domains shown)
VH: EVQLVESGGGLVQPGGSLRLSCAASGFTFSNYWMTWVRQAPGKGLEWVANIKQDGSEKYYVDSVKGRFTISRDNAKNSLYLQMNSLRAEDTAVYYCARDLWWNDQAHYYGMDVWGQGTTVTVSS
VL: SYELTQPPSVSVSPGQTARITCSGDAFPNQYAYWYQQKPGQAPVMLIYKDSERPSGIPERFFGSSSGTTVTLTIRGVQAEDEADYYCQSADSSGTVFGGGTKLTVL
B2: SARS-CoV-2 S303 mAb (antibody, V domains shown)
VH: EVQLVESGGGLVKPGGSLRLSCAASGFTFLTYSMNWVRQTPGKRLQWVSAISGSGGATYYADSVKGRFTISRDNSKNTLYLQMNTVTADDTAIYFCARERDDIFPMGLNAFDIWGQGAMVIVSS
VL: DIQMTQSPSTLSASVGDRVTITCRASQSISNWLAWYQQKPGKAPKLLIYKASSLESGVPSRFSGSGSGTEFTLTISSLQPDDSATYYCQQYDTYSWTFGQGTKVEIK
B3: SARS-CoV-2 S306 mAb (antibody, V domains shown)
VH: QVQLVQSGAEVKKPGASVKVSCKASTYTFTSFGISWVRQAPGQGLEWMGWITTYSGDTNYAQKFQGRVTMTTDTSTNTAYMELRSLRSDDTAVYYCASDYFDSSGYYHSFDYWGQGTLVTVSS
VL: EIVLTQSPDTLSLSPGERATLSCRASQSVSSYLAWYQQRPGQAPRLLIYDASKRATGIPARFSGSGSGTDFTLTISSLEPEDFAVYYCQQRSNWPPGCSFGQGTKVEIK
B4: SARS-CoV-2 S310 mAb (antibody, V domains shown)
VH: QVQLVQSGAELKKPGSSVKVSCKASGGTFNSYSFNWVRQAPGQGLEWLGGIIPVLGTSNYAQKFQGRVAVTADEFTTTAYMELSSLRSEDTAVYYCATRTYDSSGYRPYYYGLDVWGQGTPVTVSS
VL: QSALTQPASVSGSPGQSITISCTGTSSDVGSYNLVSWYQQRPGKAPELMIYEVTKRPSGLSNRFSGSKSGNTASLTISGLQAEDEADYYCCSYAGSDTVIFGGGTKVTVL
B5: SARS-CoV-2 S304 mAb (antibody, V domains shown)
VH: EVQLVESGGGLVQPGGSLRLSCAASGFTFSSYDMHWVRQTTGKGLEWVSTIGTAGDTYYPDSVKGRFTISREDAKNSLYLQMNSLRAGDTAVYYCARGDSSGYYYYFDYWGQGTLLTVSS
VL: DIQMTQSPSSLSAAVGDRVTITCRASQSIGSYLNWYQQKPGKAPKLLIYAASSLQSGVPSRFSGSGSGTDFTLTISSLQPEDFAIYYCQQSYVSPTYTFGPGTKVDIK

What was measured:
[1] = target: SARS-CoV-1 S protein expressed on ExpiCHO cells (SARS-CoV-1, UniProt P59594 14-1255); experiment: flow
[2] = target: SARS-CoV-1 RBD (Sino Biological) (SARS-CoV-1, UniProt P59594 306-527); experiment: BLI
[3] = target: SARS-CoV-2 Spike (S) protein, strain BetaCoV/Wuhan-Hu-1/2019, expressed on ExpiCHO cells (UniProt P0DTC2 14-1273); experiment: flow

Row | Binder | EC50 [1] | Kd [2] | EC50 [3]
1 | B1 | 7.59 ng/mL |  | 
2 | B2 | 1.06 ng/mL | 0.869 nM | 
3 | B3 | 20.8 ng/mL |  | 1.42 ng/mL
4 | B4 | 254 ng/mL |  | 
5 | B5 | 11.4 ng/mL |  | 
